B1: E. coli-derived methionyl-human bone morphogenetic protein-2 (met-hBMP-2, GenScript) (natural protein)
chain: MQAKHKQRKRLKSSCKRHPLYVDFSDVGWNDWIVAPPGYHAFYCHGECPFPLADHLNSTNHAIVQTLVNSVNSKIPKACCVPTELSAISMLYLDENEKVVLKNYQDMVVEGCGCR
notes: initial methionine of methionyl-hBMP-2 (printed as 'initial Met'); human bone morphogenetic protein-2, mature protein of 114 AA (theoretical backbone 12,905 Da without the initial Met; 13,036 Da with it); theoretical mass of the dimer 26,072 Da; also called E. coli-derived hBMP-2; GenScript preparation; source: bought: GenScript (from E. coli), lyophilized, reconstituted in 20 mM acetic acid
B2: CHO-derived hBMP-2 (Infuse, Medtronic), 114 amino acid glycosylated subunit (form A) (natural protein, human, UniProt P12643 283-396, looked up)
chain: QAKHKQRKRLKSSCKRHPLYVDFSDVGWNDWIVAPPGYHAFYCHGECPFPLADHLNSTNHAIVQTLVNSVNSKIPKACCVPTELSAISMLYLDENEKVVLKNYQDMVVEGCGCR
modifications: glycosylated at one site with high-mannose-type glycans
notes: human bone morphogenetic protein-2, authentic mature protein of 114 AA without initial Met (backbone 12,905 Da); Infuse is a disulfide-linked dimeric protein with two major subunit species of 114 and 131 amino acids; this molecule is the 114 AA subunit; also called 14,377 Da form; 114 AA monomer

Target: the molecule itself
Assay: SDS-PAGE and Western blotting under non-reducing conditions; 15% acrylamide gel, Coomassie Blue G stain; Western blot with anti-hBMP-2 rabbit IgG; non-reducing conditions; shows the disulfide-linked dimer

Protein	stoichiometry N
B1	2
B2	2

From paper PMC7026339, “Human bone morphogenetic protein-2 (hBMP-2) characterization by physical–chemical, immunological and biological assays” (AMB Express, 2020)
